Measurements reported in patent publication US20120135923A1, “Use of Melanocortins to Treat Dyslipidemia” (IPSEN PHARMA, S.A.S., priority 2009, published 2012).
Bridge positions count the residues as written; N and C are the ends. Square brackets hold non-standard residues; d marks the D form. Ends that are not written are not given here. Bip = N[C@@H](Cc1ccc(-c2ccccc2)cc1)C(=O)O; 2Nal = N[C@@H](Cc1ccc2ccccc2c1)C(=O)O; d2Nal = N[C@H](Cc1ccc2ccccc2c1)C(=O)O; hArg = N=C(N)NCCCC[C@H](N)C(=O)O; Pen = CC(C)(S)[C@H](N)C(=O)O; Nle = CCCC[C@H](N)C(=O)O; Ahx = NCCCCCC(=O)O; GABA = NCCCC(=O)O; βAla = NCCC(=O)O

Tests used:
[1] = molecular target: human melanocortin receptor subtype 4 (hMC4-R) (human), P32245; assay: [125I]-NDP-α-MSH competition, membranes
Sequence of human melanocortin receptor subtype 4 (hMC4-R) (human), P32245 (P32245 whole entry): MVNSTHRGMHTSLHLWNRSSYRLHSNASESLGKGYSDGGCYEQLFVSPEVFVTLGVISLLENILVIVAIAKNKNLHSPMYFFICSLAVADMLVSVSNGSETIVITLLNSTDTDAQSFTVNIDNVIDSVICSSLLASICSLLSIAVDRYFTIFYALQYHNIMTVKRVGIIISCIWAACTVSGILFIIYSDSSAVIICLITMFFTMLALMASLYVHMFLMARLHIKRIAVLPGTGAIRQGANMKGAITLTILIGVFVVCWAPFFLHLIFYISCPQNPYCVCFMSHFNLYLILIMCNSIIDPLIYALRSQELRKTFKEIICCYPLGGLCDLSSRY

[2] = molecular target: human melanocortin receptor subtype 5 (hMC5-R) (human), P33032; assay: [125I]-NDP-α-MSH competition, membranes
Sequence of human melanocortin receptor subtype 5 (hMC5-R) (human), P33032 (P33032 whole entry): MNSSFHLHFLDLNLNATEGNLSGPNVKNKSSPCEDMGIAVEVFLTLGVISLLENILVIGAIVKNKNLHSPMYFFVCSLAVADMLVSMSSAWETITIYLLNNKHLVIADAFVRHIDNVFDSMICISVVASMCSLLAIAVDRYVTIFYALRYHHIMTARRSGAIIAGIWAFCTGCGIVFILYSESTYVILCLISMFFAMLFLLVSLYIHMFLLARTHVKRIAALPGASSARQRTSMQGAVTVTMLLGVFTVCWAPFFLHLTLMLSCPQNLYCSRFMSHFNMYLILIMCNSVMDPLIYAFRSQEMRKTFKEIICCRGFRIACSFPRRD

[3] = molecular target: human melanocortin receptor subtype 3 (hMC3-R) (human), P41968; assay: [125I]-NDP-α-MSH competition, membranes
Sequence of human melanocortin receptor subtype 3 (hMC3-R) (human), P41968 (P41968 whole entry): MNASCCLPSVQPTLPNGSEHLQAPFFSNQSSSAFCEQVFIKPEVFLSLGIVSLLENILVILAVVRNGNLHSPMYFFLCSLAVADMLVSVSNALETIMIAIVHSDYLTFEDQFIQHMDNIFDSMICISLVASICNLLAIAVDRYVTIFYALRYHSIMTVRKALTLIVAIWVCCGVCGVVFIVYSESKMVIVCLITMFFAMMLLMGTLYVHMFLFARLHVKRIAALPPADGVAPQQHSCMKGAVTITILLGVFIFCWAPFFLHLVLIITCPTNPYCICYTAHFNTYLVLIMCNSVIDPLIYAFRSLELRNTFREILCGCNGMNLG

[4] = molecular target: human melanocortin receptor subtype 1 (hMC1-R) (human), Q01726; assay: [125I]-NDP-α-MSH competition, membranes
Sequence of human melanocortin receptor subtype 1 (hMC1-R) (human), Q01726 (Q01726 whole entry): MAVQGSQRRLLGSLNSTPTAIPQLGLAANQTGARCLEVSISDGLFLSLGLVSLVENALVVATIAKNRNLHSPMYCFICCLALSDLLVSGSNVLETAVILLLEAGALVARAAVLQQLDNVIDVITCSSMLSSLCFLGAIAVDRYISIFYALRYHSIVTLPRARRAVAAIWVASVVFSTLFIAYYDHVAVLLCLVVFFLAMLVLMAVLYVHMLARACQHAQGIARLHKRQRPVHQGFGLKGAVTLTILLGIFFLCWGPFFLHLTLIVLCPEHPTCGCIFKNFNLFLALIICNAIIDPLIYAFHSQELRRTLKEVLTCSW

hMC4-R (human) [5] = molecular target: hMC4-R (human) (UniProt P32245); assay: competition with [125I]-NDP-α-MSH, CHO-K1 membranes
Sequence of hMC4-R (human) (P32245 whole entry): as the sequence (P32245 whole entry) above

hMC3-R (human) [6] = molecular target: hMC3-R (human) (UniProt P41968); assay: as above
Sequence of hMC3-R (human) (P41968 whole entry): as the sequence (P41968 whole entry) above

hMC5-R (human) [7] = molecular target: hMC5-R (human) (UniProt P33032); assay: as above
Sequence of hMC5-R (human) (P33032 whole entry): as the sequence (P33032 whole entry) above

hMC1-R (human) [8] = molecular target: hMC1-R (human) (UniProt Q01726); assay: as above
Sequence of hMC1-R (human) (Q01726 whole entry): as the sequence (Q01726 whole entry) above

hMC1-R (human) [9] = molecular target: hMC1-R (human) (UniProt Q01726); assay: ratio Ki hMC1-R / Ki hMC4-R, same assay
hMC4-R (human) [10] = molecular target: hMC4-R (human) (UniProt P32245); assay: cell-based or functional assay
hMC3-R (human) [11] = molecular target: hMC3-R (human) (UniProt P41968); assay: cell-based or functional assay
hMC5-R (human) [12] = molecular target: hMC5-R (human) (UniProt P33032); assay: cell-based or functional assay
hMC1-R (human) [13] = molecular target: hMC1-R (human) (UniProt Q01726); assay: cell-based or functional assay

Binder	Ki [1] [nM]	Ki [2] [nM]	Ki [3] [nM]	Ki [4] [nM]	Ki (hMC4-R (human) [5]) [nM]	Ki (hMC3-R (human) [6]) [nM]	Ki (hMC5-R (human) [7]) [nM]	Ki (hMC1-R (human) [8]) [nM]	Ki hMC1-R/MC4-R (hMC1-R (human) [9])	cAMP Kb (hMC4-R (human) [10]) [nM]	cAMP Kb (hMC3-R (human) [11]) [nM]	cAMP EC50 (hMC5-R (human) [12]) [nM]	cAMP EC50 (hMC1-R (human) [13]) [nM]
Ac-CEH[d2Nal]R[2Nal]ACPPKD-NH2 (disulfide 1-8; SMILES CC(=O)N[C@H]1CSSC[C@@H](C(=O)N2CCC[C@H]2C(=O)N2CCC[C@H]2C(=O)N[C@@H](CCCCN)C(=O)N[C@@H](CC(=O)O)C(N)=O)NC(=O)[C@H](C)NC(=O)[C@H](Cc2ccc3ccccc3c2)NC(=O)[C@H](CCCNC(=N)N)NC(=O)[C@@H](Cc2ccc3ccccc3c2)NC(=O)[C@H](Cc2c[nH]cn2)NC(=O)[C@H](CCC(=O)O)NC1=O) [Ac-c(Cys-Glu-His-D-2-Nal-Arg-2-Nal-Ala-Cys)-Pro-Pro-Lys-Asp-NH2]	1.2	359	9.08	87.8	–	–	–	–	–	–	–	–	–
AGC[dA]H[dF]RWC-NH2 (disulfide 3-9; also: hydantoin ring: C(O) bridging Ala-Gly) [Hydantoin(C(O)-(Ala-Gly))-c(Cys-D-Ala-His-D-Phe-Arg-Trp-Cys)-NH2]	5.73	18.9	38.4	13.9	–	–	–	–	–	–	–	–	–
Ac-[Nle]C[dA]H[dF]RW[dA]C-NH2 (disulfide 2-9; SMILES CCCC[C@H](NC(C)=O)C(=O)N[C@H]1CSSC[C@@H](C(N)=O)NC(=O)[C@@H](C)NC(=O)[C@H](Cc2c[nH]c3ccccc23)NC(=O)[C@H](CCCNC(=N)N)NC(=O)[C@@H](Cc2ccccc2)NC(=O)[C@H](Cc2c[nH]cn2)NC(=O)[C@@H](C)NC1=O) [Ac-Nle-c(Cys-D-Ala-His-D-Phe-Arg-Trp-D-Ala-Cys)-NH2]	–	–	–	–	48	876	4940	3.93	0.08	–	–	–	–
[dF]CH[d(Et)Tyr][hArg][Bip][βAla][dC]T-NH2 (disulfide 2-8) [D-Phe-c(Cys-His-D-(Et)Tyr-hArg-Bip-β-Ala-D-Cys)-Thr-NH2]	–	–	–	–	36.9	85.6	38	0.128	0	–	–	–	–
Ac-[Nle]CH[d2Nal]RW[Ahx]C-NH2 (disulfide 2-8) [Ac-Nle-c(Cys-His-D-2-Nal-Arg-Trp-Ahx-Cys)-NH2]	–	–	–	–	0.998	2.91	0.366	0.333	0.33	0.967	10.8	0.126	0.581
Ac-[Nle][Pen]H[dF]RW[GABA]C-NH2 (disulfide 2-8; SMILES CCCC[C@H](NC(C)=O)C(=O)N[C@@H]1C(=O)N[C@@H](Cc2c[nH]cn2)C(=O)N[C@H](Cc2ccccc2)C(=O)N[C@@H](CCCNC(=N)N)C(=O)N[C@@H](Cc2c[nH]c3ccccc23)C(=O)NCCCC(=O)N[C@H](C(N)=O)CSSC1(C)C) [Ac-Nle-c(Pen-His-D-Phe-Arg-Trp-Gaba-Cys)-NH2]	–	–	–	–	5.89	86.1	2.56	0.537	0.09	–	–	–	–
[Nle]GC[dA]H[dF]RWC-NH2 (disulfide 3-9; also: N-terminal hydantoin: C(O) bridges X1 N-terminal N and G2 backbone N, bridge at N via C(O), other end not in the chain) [Hydantoin(C(O)-(Nle-Gly))-c(Cys-D-Ala-His-D-Phe-Arg-Trp-Cys)-NH2]	6.7	21.3	46.4	7.92	–	–	–	–	–	–	–	–	–
[dF]CH[dF][hArg][Bip][βAla][dC]T-NH2 (disulfide 2-8; N-terminus assumed; SMILES C[C@@H](O)[C@H](NC(=O)[C@H]1CSSC[C@H](NC(=O)[C@H](N)Cc2ccccc2)C(=O)N[C@@H](Cc2c[nH]cn2)C(=O)N[C@H](Cc2ccccc2)C(=O)N[C@@H](CCCCNC(=N)N)C(=O)N[C@@H](Cc2ccc(-c3ccccc3)cc2)C(=O)NCCC(=O)N1)C(N)=O) [D-Phe-c(Cys-His-D-Phe-hArg-Bip-β-Ala-D-Cys)-Thr-NH2]	–	–	–	–	172	1260	1220	1.68	0.01	–	–	–	–
[dF]CH[dF]RW[βAla][dC]T-NH2 (disulfide 2-8; N-terminus assumed; SMILES C[C@@H](O)[C@H](NC(=O)[C@H]1CSSC[C@H](NC(=O)[C@H](N)Cc2ccccc2)C(=O)N[C@@H](Cc2c[nH]cn2)C(=O)N[C@H](Cc2ccccc2)C(=O)N[C@@H](CCCNC(=N)N)C(=O)N[C@@H](Cc2c[nH]c3ccccc23)C(=O)NCCC(=O)N1)C(N)=O) [D-Phe-c(Cys-His-D-Phe-Arg-Trp-β-Ala-D-Cys)-Thr-NH2]	–	–	–	–	2.58	43.2	344	0.207	0.08	–	–	–	–
